Residue numbers refer to the chain shown, from its start. Numbers in names are those of the source. Blank lines part the entries; values can stand above or below the binder they belong to.
Assays:
human FcγRIa [1] = target: T1, human FcγRIa (human, UniProt P12314 16-292, limits assumed); test: SPR (Biacore), FcγR over captured antibody; amount bound relative to IL6R-BF648/IL6R-L x100
T1 construct: also called CD64
T1 sequence (P12314 16-292 limits assumed): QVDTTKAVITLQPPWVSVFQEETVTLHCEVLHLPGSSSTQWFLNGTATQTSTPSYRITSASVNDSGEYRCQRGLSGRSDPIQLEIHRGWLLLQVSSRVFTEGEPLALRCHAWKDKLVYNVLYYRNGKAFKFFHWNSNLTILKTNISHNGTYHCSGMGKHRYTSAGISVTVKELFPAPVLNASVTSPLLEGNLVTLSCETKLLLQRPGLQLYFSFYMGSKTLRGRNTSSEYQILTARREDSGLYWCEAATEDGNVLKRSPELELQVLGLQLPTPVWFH

human FcγRIIa type R = target: T2, human FcγRIIa type R (human, UniProt P12318 36-217); test: as above
T2 construct: also called FcγRIIaR; FcγRIIa(R)
T2 chain: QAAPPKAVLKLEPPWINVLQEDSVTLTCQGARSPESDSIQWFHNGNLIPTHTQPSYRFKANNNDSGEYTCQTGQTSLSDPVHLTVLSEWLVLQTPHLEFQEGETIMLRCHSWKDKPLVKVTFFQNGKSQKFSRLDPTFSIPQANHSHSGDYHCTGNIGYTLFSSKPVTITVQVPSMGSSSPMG

human FcγRIIa type H [2] = target: T3, human FcγRIIa type H (human, UniProt P12318 36-217); test: as above
T3 construct: Whole entry named for FcγRIIa allotype H131 (AAH20823.1); also called FcγRIIaH; FcγRIIa(H)
T3 sequence: T2 chain with R133H

human FcγRIIIa type V [3] = target: T4, human FcγRIIIa type V (human, UniProt P08637 17-208, limits assumed); test: as above
T4 construct: also called FcγRIIIaV; FcγRIIIa(V)
T4 sequence (P08637 other isoform, or with tags, fused parts or gaps limits assumed): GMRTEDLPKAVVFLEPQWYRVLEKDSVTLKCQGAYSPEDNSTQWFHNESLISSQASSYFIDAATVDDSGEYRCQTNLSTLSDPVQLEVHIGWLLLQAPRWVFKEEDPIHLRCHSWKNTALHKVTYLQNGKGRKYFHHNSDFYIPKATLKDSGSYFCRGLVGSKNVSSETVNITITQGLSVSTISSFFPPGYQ

human FcγRIIb [4] = target: T5, human FcγRIIb (human, UniProt P31994 43-217); test: as above
T5 construct: also called FcγIIB
T5 sequence: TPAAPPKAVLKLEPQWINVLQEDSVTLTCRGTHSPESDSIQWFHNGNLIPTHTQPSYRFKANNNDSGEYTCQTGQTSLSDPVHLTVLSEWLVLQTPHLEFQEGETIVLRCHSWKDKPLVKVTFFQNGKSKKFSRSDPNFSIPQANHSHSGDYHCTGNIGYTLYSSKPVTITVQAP

human FcγRIIa type H [5] = target: T6, human FcγRIIa type H (human, UniProt P12318 36-217); test: SPR (Biacore); binding amount divided by that of control IL6R-BF648/IL6R-L, x100
T6 construct: also called FcgRIIaH; FcγRIIa(H)
T6 sequence: T2 chain with R133H
Experimental: (§1) According to the following method, relative binding activities were calculated for the results of analyzing interactions with the respective FcγRs.

human FcγRIa [6] = target: T7, human FcγRIa (human, UniProt P12314 16-292, limits assumed); test: as above
T7 construct: also called FcgRIa; CD64
T7 sequence (P12314 16-292 limits assumed): as the sequence (P12314 16-292 limits assumed) above
Experimental: as §1

human FcγRIIIa type V [7] = target: T8, human FcγRIIIa type V (human, UniProt P08637 17-208, limits assumed); test: as above
T8 construct: The assay used allotype V158; also called FcgRIIIaV; FcγRIIIa(V)
T8 sequence (P08637 other isoform, or with tags, fused parts or gaps limits assumed): as the sequence (P08637 other isoform, or with tags, fused parts or gaps limits assumed) above
Experimental: as §1

human FcγRIIb [8] = target: T9, human FcγRIIb (human, UniProt P31994 43-217, limits assumed); test: as above
T9 construct: also called FcgRIIb; FcγIIB
T9 sequence: T5 sequence
Experimental: as §1

relative binding (human FcγRIa [1]): 140 relative value (IL6R-BF648/IL6R-L = 100)
relative binding (human FcγRIIa type R): 244 relative value (IL6R-BF648/IL6R-L = 100)
relative binding (human FcγRIIa type H [2]): 179 relative value (IL6R-BF648/IL6R-L = 100)
relative binding (human FcγRIIIa type V [3]): 144 relative value (IL6R-BF648/IL6R-L = 100)
relative binding (human FcγRIIb [4]): 132 relative value (IL6R-BF648/IL6R-L = 100)
B1: IL6R-2B172/IL6R-L (antibody, human IgG1)
heavy: QVQLQESGPGLVKPSETLSLTCAVSGHSISHDHAWSWVRQPPGEGLEWIGFISYSGITNYNPSLQGRVTISRDNSKNTLYLQMNSLRAEDTAVYYCARSLARTTAMDYWGEGTLVTVSSASTKGPSVFPLAPSSKSTSGGTAALGCLVKDYFPEPVTVSWNSGALTSGVHTFPAVLQSSGLYSLSSVVTVPSSSLGTQTYICNVNHKPSNTKVDKKVEPKSCDKTHTCPPCPAPELLGGDSVFLFPPKPKDTLMISRTPEVTCVVVDVSHEDPEVKFNWYVDGVEVHNAKTKPREEQYNSTYRVVSVLTVLHQDWLNGKEYKCKMSNKALPAPIEKTISKAKGQPREPQVYTLPPSRDELTKNQVSLTCLVKGFYPSDIAVEWESNGQPENNYKTTPPVLDSDGSFFLYSKLTVDKSRWQQGNVFSCSVMHEALHNHYTQESLSLSP
light: DIQMTQSPSSLSASVGDRVTITCRASQDISSYLNWYQQKPGKAPKLLIYYTSRLHSGVPSRFSGSGSGTDFTFTISSLQPEDIATYYCQQGNTLPYTFGQGTKVEIK
notes: copies: 2 + 2

relative binding activity (human FcγRIIa type H [5]): 123 % of IL6R-BF648/IL6R-L
relative binding activity (human FcγRIa [6]): 118 % of IL6R-BF648/IL6R-L
relative binding activity (human FcγRIIIa type V [7]): 100 % of IL6R-BF648/IL6R-L
relative binding activity (human FcγRIIb [8]): 169 % of IL6R-BF648/IL6R-L
B2: IL6R-BP213/IL6R-L (antibody, human IgG1)
heavy: B1 heavy with E235D, H270D, P273G, M325V, A332R
light: B1 light
notes: The common L chain is IL6R-L; copies: 2 + 2

relative binding (human FcγRIa [1]): 100 relative value (IL6R-BF648/IL6R-L = 100)
relative binding (human FcγRIIa type R): 100 relative value (IL6R-BF648/IL6R-L = 100)
relative binding (human FcγRIIa type H [2]): 100 relative value (IL6R-BF648/IL6R-L = 100)
relative binding (human FcγRIIIa type V [3]): 100 relative value (IL6R-BF648/IL6R-L = 100)
relative binding (human FcγRIIb [4]): 100 relative value (IL6R-BF648/IL6R-L = 100)
B3: IL6R-BF648/IL6R-L (antibody, human IgG1)
heavy: not shown
light: B1 light
notes: IL6R-B3 with P238D; copies: 2 + 2

relative binding activity (human FcγRIIa type H [5]): 344 % of IL6R-BF648/IL6R-L
relative binding activity (human FcγRIa [6]): 68 % of IL6R-BF648/IL6R-L
relative binding activity (human FcγRIIIa type V [7]): 221 % of IL6R-BF648/IL6R-L
B4: IL6R-BP195/IL6R-L (antibody, human IgG1)
heavy: B1 heavy with E235D, L236Y, G239D, H270D, P273G, Y298D, M325V, K328A, A332K
light: B1 light
notes: as for B2

relative binding activity (human FcγRIIa type H [5]): 145 % of IL6R-BF648/IL6R-L
relative binding activity (human FcγRIa [6]): 125 % of IL6R-BF648/IL6R-L
relative binding activity (human FcγRIIIa type V [7]): 142 % of IL6R-BF648/IL6R-L
B5: IL6R-BP191/IL6R-L (antibody, human IgG1)
heavy: B1 heavy with E235D, H270D, P273G, M325V, K328A, A332K
light: B1 light
notes: as for B2

relative binding activity (human FcγRIIa type H [5]): 183 % of IL6R-BF648/IL6R-L
relative binding activity (human FcγRIa [6]): 56 % of IL6R-BF648/IL6R-L
relative binding activity (human FcγRIIIa type V [7]): 141 % of IL6R-BF648/IL6R-L
relative binding activity (human FcγRIIb [8]): 177 % of IL6R-BF648/IL6R-L
B6: IL6R-BP189/IL6R-L (antibody, human IgG1)
heavy: B1 heavy with G239D, H270D, P273G, M325V, K328A, A332K
light: B1 light
notes: as for B2

relative binding (human FcγRIa [1]): 110 relative value (IL6R-BF648/IL6R-L = 100)
relative binding (human FcγRIIa type R): 126 relative value (IL6R-BF648/IL6R-L = 100)
relative binding (human FcγRIIa type H [2]): 110 relative value (IL6R-BF648/IL6R-L = 100)
relative binding (human FcγRIIIa type V [3]): 114 relative value (IL6R-BF648/IL6R-L = 100)
relative binding (human FcγRIIb [4]): 108 relative value (IL6R-BF648/IL6R-L = 100)
B7: IL6R-BP116/IL6R-L (antibody, human IgG1)
heavy: B1 heavy with M325V, K328T
light: B1 light
notes: copies: 2 + 2

relative binding (human FcγRIa [1]): 140 relative value (IL6R-BF648/IL6R-L = 100)
relative binding (human FcγRIIa type R): 650 relative value (IL6R-BF648/IL6R-L = 100)
relative binding (human FcγRIIa type H [2]): 1670 relative value (IL6R-BF648/IL6R-L = 100)
relative binding (human FcγRIIIa type V [3]): 3350 relative value (IL6R-BF648/IL6R-L = 100)
relative binding (human FcγRIIb [4]): 62 relative value (IL6R-BF648/IL6R-L = 100)
B8: IL6R-G1d/IL6R-L (antibody, human IgG1)
heavy: not shown
light: B1 light
notes: Anti-human IL-6 receptor IgG1 with G1d constant region (C-terminal Gly and Lys removed); also called IgG1; copies: 2 + 2

relative binding (human FcγRIa [1]): 56 relative value (IL6R-BF648/IL6R-L = 100)
relative binding (human FcγRIIa type R): 163 relative value (IL6R-BF648/IL6R-L = 100)
relative binding (human FcγRIIa type H [2]): 69 relative value (IL6R-BF648/IL6R-L = 100)
relative binding (human FcγRIIIa type V [3]): 77 relative value (IL6R-BF648/IL6R-L = 100)
relative binding (human FcγRIIb [4]): 107 relative value (IL6R-BF648/IL6R-L = 100)
B9: IL6R-BP103/IL6R-L (antibody, human IgG1)
heavy: B1 heavy with S269V, M325V
light: B1 light
notes: copies: 2 + 2

relative binding (human FcγRIa [1]): 104 relative value (IL6R-BF648/IL6R-L = 100)
relative binding (human FcγRIIa type R): 165 relative value (IL6R-BF648/IL6R-L = 100)
relative binding (human FcγRIIa type H [2]): 66 relative value (IL6R-BF648/IL6R-L = 100)
relative binding (human FcγRIIIa type V [3]): 86 relative value (IL6R-BF648/IL6R-L = 100)
relative binding (human FcγRIIb [4]): 106 relative value (IL6R-BF648/IL6R-L = 100)
B10: IL6R-BP102/IL6R-L (antibody, human IgG1)
heavy: B1 heavy with S269Q, M325V
light: B1 light
notes: copies: 2 + 2
